Source: the DeepSol protein solubility set

Assay: soluble on expression in E. coli; label from the status in PepcDB or PDB records

Sequence	soluble on expression in E. coli
MGKEKVHINIVVIGHVDSGKSTTTGHLIYKCGGIDKRTIEKFEKEAQEMGKGSFKYAWVLDKLKAERERGITIDIALWKFETAKYYITIIDAPGHRDFIKNMITGTSQADCAVLVVACNKMDSTEPPFSEARFTEITNEVSGFIKKIGYNPKAVPFVPISGFNGDNMLEVSSNMPWFKGWAVERKEGNASGKTLLEALDSIIPPQRPTDRPLRLPLQDVYKIGGIGTVPVGRVETGIIKPGMVVTFAPQNVTTEVKSVEMHHESLPEAVPGDNVGFNVKNVSVKDIRRGSVCSDSKQDPAKEARTFHAQVIIMNHPGQISNGYTPVLDCHTAHIACKFNELKEKVDRRTGKKVEDFPKFLKSGDAGIVELIPTKPLCVESFTDYAPLGRFAVRDMRQTVAVGVIKSVEKSDGSSGKVTKSAQKAAPKKK	not soluble
MTIIGNPEIGLYTGKLPKGCELCRLGGKLVLFITGECDDNCYYCPVSDDRFGKNKIFANETEVNNSMDVIYEAYRMKALGAGITGGDPILEIGRVIEIIEELKNEFGYDFHIHLYTTGRYVNDDIMRELVNAGLDEMRFHPVKELYLNAVKVALKYDIDIGLELPAIPNEKDKIVRLIKWAEENNVKFVNLNELELNSRNYLNLNSKGFHAKHGITGVEGSFETALDVLKKFEDNKKITVHYCSSIYKDLVETRTRFFRIIKYSSKPYEEYTNEATVVRAIVKTKGEIPILENFGESTGSDEYSISPSIVGDLLNDYTNLINEIYIVEEHPDSRRLRVGEKLIYSKSKNS	not soluble
MYCIGCGAKIQTEAKNALGFLPAGALKKKIAERDQMEAVQAGDEGSEASIKTEDLYCQRCFRLRHYNEIAPTSLTDADFLRLLKEIGQHDALIVNVVDIFDFNGSLIPNLHKLTGGNDLLMVANKRDVLPKSLKVGKLTAWLREQAASRSLKPKDILVTSAQNKDDVAELMEAIEYYRRGRDVYVVGVTNVGKSTLINAIIKSASGSEDVITTSRFPGTTLDKIEIPLDEDSALIDTPGIIHRGQIAHYLEPEDLKYVSPRKEIKPKTYQLDPEQTLFFGGLARFDFISGERQGMTAYFDNEINVHRTKLEGATEFYEKHKGELLAPALVGAKLVRREFKITDKSDIVFSGLGWVRVPQKAVVAAWVPEGVDVVVRKALIGLEHHHHHH	soluble
MKRFDLRPLKAGIFERLEELIEKEMQPNEVAIFMFEVGDFSNIPKSAEFIQSKGHELLNSLRFNQADWTIVVRKKA	not soluble
EKVKNSDYTFEVDFEGPFFPIVEGVNSFGKRMYRVAPQVLRVPLEKPETRVISDIKNGEVLVYVFIQSPEGVVPVSLNLEGKRFRFFNLEGKWICVFKSFLEDGAHELEITFNGPYGYTFSLKKEIYVIKRVAVPMRGEDGAFDYTVFAEHVVKRGETLWSIANQYGVRVGDIVLINRLEDPDRIVAGQVLKIGRVYFRENPVTIVVNLFSSKLALYYDGVLLKVYPVALGRSDATPPGRYWVLRKEIDPALYWFGEYISPRTPLNGLGTRYLQLSDPTYAIHGTSKPWEIGKRISHGCIRMFNRDVEEIDAFAGVGTEVVVVKEDKEFPERIY	not soluble
MDWQNRFSVLNLSSHDPLPELMLTHLTGWGAITLVGADKKAYLQGQVTCNVVSLQEQQVTFGAHCDAKGKVWSVFRLFHHHDGYAMFQPQSAMEVELRELKKYAIFSKVTIAESSDIALGVMGSQADAWIDTVSETTGDVRRIAGGTAVRMSPQRWLLLVNAEQAEQYVNAWQGLHVEQSLWTRMDIEEAVPVVTQTAQNEHIPQALNVQAVDGISFTKGCYTGQETVARAKYRGINKRAMYIVKGNLSAPLSQDEPVVLERAVGENWRSAGALLTHYRFTDSIAIGLIVLPNDLEHDVKLRLAAQPDTRWHIQPLPYSLSDELEHHHHHH	soluble
MGHHHHHHSHMLGSWPARTFHPGACVSRRPSAPWKHTASGKDSPDLRFSEHGVSQEFWAGGLVAVLEMTPSPSPWGTQEDPAGMCSLWVVGWCPCRGAGVRDLVLVHAGVWCKHVCAVQRDACGESRTPAPPRKGGAVTSVLCLFLIKTFPLFSYKFASCKQVHKDPPLVKSGFE	soluble
MSLKIIILGAGQVGGTLAENLVGENNDITVVDKNADRLRDLQDKYDLRVVNGHASHPDVLREAGAQDADMLVAVTNTDETNMAACQVAFTLFNTPNRIARIRSPQYLAEKEALFQSGAVPVDHLIAPEELVTSYIERLIQYPGALQVVSFAEEKVSLVAVKAYYGGPLVGNALSALRDHMPHIDTRVAAIFRQGRPIRPQGTTIIEADDEVFFVAASNHIRSVMSELQRLEKPYRRIMIVGGGNIGASLAKRLEQTYSVKLIEHNYQRAEQLSEQLENTIVFCGDAADQELLSEENIDQVDVFIALTNEDETNIMSAMLAKRMGAKKAMVLIQRSGYVDLVQGGVIDVAISPQQATISALLTHVRRADIVNVSSLRRGAAEAIEAIAHGDESTSKVVGRAVGDIKLPPGTTIGAIVRGEEVLIAHDRTVIEQDDHVVMFLVDKKYVPDVETLFQPSPFFLEGHHHHHH	soluble
MSEKFEHYYTVEPTSKLKVREARLVLKNGHEYIFKTPSGVYSYGKIDKATQVLLENLKVHGKKVLDLGCGYGVIGIVLKKEYPDLEVYMSDINKRAVEFAKINAKDHNVEVDIRWGNLYEPWEDMKFDMIVCNPPIVAGKKVWMEIVKSAPEFLEEGGSLQIVAYHNKGGRRIRDFMKEVFGNVEELCKTGGIRVYRSVKGLKEDEDNAE	not soluble
MRSYDFSPLYRATVGFDRIADLMDRVMTSEVAQPTYPPYNIEKTAENAYRISIAVAGFTPDELAVEVKENTLHVGARKAADEAERTYLHRGIATRAFERRFALADHVRVSGATHEHGMLHIDLVRETPEALKPRRIEIARGDLGGTRSIEAVKEPVEA	not soluble
MGSDKIHHHHHHMKIKNDLIYDEIHALKADLYQPDNASKGLIIDIHGGGWFRGDKAKDQDLAEALVKDGFSVIVPNYRLTPDAYYPAPLDDMDTLYHWIKTSSKLFDSDRIAVVGSSAGGNMAVEMGIKYGLPIVSLSGILDIDDWLNEHTAVIAQPDHKQDFTNSKSSEINQTGQNDAFYKWFVTNYFNGNSDQYSLATPYKHVNSQPGPMFLANSLNEFVPTSGVLEMAKILTSKNVPYVEWMLPGTQHAKGYLEIVYPTVLNFLNQYI	not soluble
MANYPKELPAQTQSRQPGIESEMNPSPVYEYEDYKGADKLKGKVALITGGDSGIGRAVSVAYAKEGADIAIVYKDEHEDAEETKKRVEQEGVKCLLIAGDVGEEEFCNEAVEKTVKELGGLDILVNNAGEQHPKESIKDITSEQLHRTFKTNFYSQFYLTKKAIDYLKPGSAIINTTSINPYVGNPTLIDYTATKGAINAFTRTMAQALVKDGIRVNAVAPGPIWTPLIPATFPEETVAQFGQDTPMGRPGQPVEHVGCYVLLASD	not soluble
MKPYYVTTAIAYPNAAPHVGHAYEYIATDAIARFKRLDRYDVRFLTGTDEHGLKVAQAAAAAGVPTAALARRNSDVFQRMQEALNISFDRFIRTTDADHHEASKELWRRMSAAGDIYLDNYSGWYSVRDERFFVESETQLVDGTRLTVETGTPVTWTEEQTYFFRLSAYTDKLLAHYHANPDFIAPETRRNEVISFVSGGLDDLSISRTSFDWGVQVPEHPDHVMYVWVDALTNYLTGAGFPDTDSELFRRYWPADLHMIGKDIIRFHAVYWPAFLMSAGIELPRRIFAHGFLHNRGEKMSKSVGNIVDPVALAEALGVDQVRYFLLREVPFGQDGSYSDEAIVTRINTDLANELGNLAQRSLSMVAKNLDGRVPNPGEFADADAALLATADGLLERVRGHFDAQAMHLALEAIWLMLGDANKYFSVQQPWVLRKSESEADQARFRTTLYVTCEVVRIAALLIQPVMPESAGKILDLLGQAPNQRSFAAVGVRLTPGTALPPPTGVFPRYQPPQPPEGK	not soluble
MSIFPTRDSRDLSSRRRSLIDWEFPQMALVPLDQVFDWAERSRQSLHDDIVNMHRNLFSLEPFTAMDNAFESVMKEMSAIQPREFHPELEYTQPGELDFLKDAYEVGKDGRLHFKVYFNVKNFKAEEITIKADKNKLVVRAQKSVACGDAAMSESVGRSIPLPPSVDRNHIQATITTDDVLVIEAPVNEPNYKAIKLSPEKGLAIQPSEVQERQLAVKNKEGLEIVTAEDGSKKIHLELKVDPHFAPKDVKVWAKGNKVYVHGVTGKEEKTENASHSEHREFYKAFVTPEVVDASKTQAEIVDGLMVVEAPLFK	soluble
KQEVSGQVIYLNRGKSFFAFIKEYLEKETGYKKGVKWNRIALDEVEIITSEMSQARKENIKEAFLDGAVKIIIGTATIREGIDLQRKGTVIYNCYPDWNPTDIRQLEGRIWRQGNE	not soluble
MGSDKIHHHHHHMKFTPELESGVLIKRYKRFLADIMLPNGQEITIHCPNTGSMKNCLFPGEKVWFSTSDNPKRKYAHTWELMQTDQQHYIGINTGRANALAEEAINRQVITELLGYEHLKREVKYGSENSRIDILLTSQNRPECYIEVKSCTLLEDQMGYFPDAVTTRGQKHLRELIHMVELGHRAVLLFVVQHSAITSVKPARHIDPHYADLLEQAVANGVEVLAYKTALSPQGSLITSACKVML	not soluble
MAREATIARTTNETSIQLSLSLDGEGKAELETGVPFLTHMLDLFAKHGQFDLYIEAKGDTHIDDHHTTEDIGICLGQAIKEALGDKKGIKRYGNAFVPMDDALAQVVIDLSNRPHFEFRGEFPATKVGAFDVELVHEFLWKLALEARMNLHVIVHYGRNTHHMIEAVFKALGRALDEATMIDPRVKGVPSTKGML	not soluble
PMGDGTQVVFTTSLIPTEAIVQLDTKAPANSKQSPIFFISPIEGFASALEPLAKRLEVPAYGLQYTEAVPSDSLESAAKFFIKQLRTVQPKGPYKLAGYSFGCLLTYVMAGILEETNEVANVIMLDGAPSYVNWYTSSFKQRYTDGTNADNDNQSYGLAYFGIVLANIDYKALVRLLIVIPTWEEKLERFAELMSNEITQPVETIKKSATLFYKKLELADGYQPTLKLKTNVTLVKPTDNSAKLDEDYRLKEVCTKPVEVHTVEGNHRTFLIEDQSLKTIQSILKRL	soluble
MAAFMEEALVEARRARDAGEVPVGCVFVHGDKVVARGGNEVNVHRNATRHAEFICIDAILASCRERRLPARQLFSEITVVVTVEPCIMCSAALHTLGVKEIIYGCENDRFGGKTVVDVAAVVGHRIEITGGVRADEAMALLKDFYKGDNPAAPPQAKKKKLEHHHHHH	soluble
MINHLSAIDDIADAEQIRVLFYASNRMVHAPLNKVLDLIKNDTQRDLLSALTQYQEATEQRIETLQKNLDALRLQVSLSTHNLKK	not soluble
MTGVGTPSPSLEWRRRVMSWTDERVSTLKKLWLDGLSASQIAKQLGGVTRNAVIGKVHRLGLSGRAAPSQPARPAFKAPRPARPAAQAMPSAPRRVTPVEAPTSVPVAAAPAPLPAFRHEEPGSATVLTLGAHMCKWPIGDPSSEGFTFCGRRSSEGPYCVEHARVAYQPQQTKKKSGGAELARSLRRYILEHHHHHH	not soluble
MHGLNKDIIFPLQIFALSNNVLYNFPEQGVVPVLYVIYAQDKADSLEKRLSVRPAHLARLQLLHDEGRLLTAGPMPAVDSNDPGAAGFTGSTVIAEFESLEAAQAWADADPYVAAGVYEHVSVKPFKKVF	not soluble
MSLEIVQEGIAKIIVPEIPKTVSSDMPVFYNPRMRVNRDLAVLGLEYLCKKLGRPVKVADPLSASGIRAIRFLLETSCVEKAYANDISSKAIEIMKENFKLNNIPEDRYEIHGMEANFFLRKEWGFGFDYVDLDPFGTPVPFIESVALSMKRGGILSLTATDTAPLSGTYPKTCMRRYMARPLRNEFKHEVGIRILIKKVIELAAQYDIAMIPIFAYSHLHYFKLFFVKERGVEKVDKLIEQFGYIQYCFNCMNREVVTDLYKFKEKCPHCGSKFHIGGPLWIGKLWDEEFTNFLYEEAQKREEIEKETKRILKLIKEESQLQTVGFYVLSKLAEKVKLPAQPPIRIAVKFFNGVRTHFVGDGFRTNLSFEEVMKKMEELKEKQKEFLEKEGHHHHHH	soluble
